Fewer inactive variants are shown than the library holds.
B1: TPR 5TU (parent)
chain: GGAUCUUCUCGAUCUAACAAAAAAGACAAAUCUGCCACAAAGCUUGAGAGCAUCUUCGGAUGCAGAGGCGGCAGCCUUCGGUGGCGCGAUAGCGCCAACGUUCUCAACUAUGACACGCAAAACGCGUGCUCCGUUGAAUGGAGUUUAUCAUG

Variants of: B1
Test: polymerase ribozyme fitness, log enrichment relative to wild type (log ratio); higher = more active; in vitro selection for triplet polymerase activity
Summary of the method: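 Streptavidin-bead capture of gel-excised extended constructs, followed by RT-PCR, closed a single triplicate in vitro selection round. That round began by annealing PCR-built, transcribed mutant libraries of each subunit of a heterodimeric triplet polymerase ribozyme with a biotinylated primer, the partner subunit and triplets, then incubating them frozen at −7 °C. After Illumina sequencing of inputs and outputs, genotypes needed ≥10 input reads and ≥1 read per output. Fitness is the base-2 logarithm of genotype enrichment over wild-type enrichment, using inverse-variance-weighted replicate averages.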

Question: With C93G C108G A142C C149U U151G as the variant, how does the “polymerase ribozyme fitness (log ratio)” value read?
Answer: Its value is ≤ -4.2.

Question: With C93U G136A as the variant, how does the “polymerase ribozyme fitness (log ratio)” value read?
Answer: The value was -1.1.

Question: With C93U G136C as the variant, how does the “polymerase ribozyme fitness (log ratio)” value read?
Answer: Its value is -4.02.

Question: Which “polymerase ribozyme fitness (log ratio)” value does the source give for G92U C125U here?
Answer: The value was -1.4.

Question: For C93A C95U, which “polymerase ribozyme fitness (log ratio)” value is on record?
Answer: The value was -3.37.

Question: With C93A C95G as the variant, how does the “polymerase ribozyme fitness (log ratio)” value read?
Answer: Its value is ≤ -4.2.

Question: For C93G A98C, which “polymerase ribozyme fitness (log ratio)” value is on record?
Answer: Its value is -2.81.

Question: With C93G A98U as the variant, how does the “polymerase ribozyme fitness (log ratio)” value read?
Answer: The value was -2.82.

Question: Which “polymerase ribozyme fitness (log ratio)” value does the source give for G94A G152C here?
Answer: The value was -3.08.

Question: For A91G C131A A137C G143C, which “polymerase ribozyme fitness (log ratio)” value is on record?
Answer: The value was ≤ -4.2.

Question: With A91G A98U as the variant, how does the “polymerase ribozyme fitness (log ratio)” value read?
Answer: The value was -3.95.

Question: For C93A A138U, which “polymerase ribozyme fitness (log ratio)” value is on record?
Answer: Its value is -4.18.

Question: Which “polymerase ribozyme fitness (log ratio)” value does the source give for G92U A137G U145C here?
Answer: Its value is -1.11.

Question: With G94A A97U as the variant, how does the “polymerase ribozyme fitness (log ratio)” value read?
Answer: The value was -1.

Question: With G92C G124U C129U A138G U139G as the variant, how does the “polymerase ribozyme fitness (log ratio)” value read?
Answer: The value was ≤ -4.2.

Question: For C93A U134C, which “polymerase ribozyme fitness (log ratio)” value is on record?
Answer: The value was -1.59.

Question: With G92U A106G as the variant, how does the “polymerase ribozyme fitness (log ratio)” value read?
Answer: The value was -0.318.

Question: Which “polymerase ribozyme fitness (log ratio)” value does the source give for G92U A106C here?
Answer: Its value is -0.0112.

Question: Which “polymerase ribozyme fitness (log ratio)” value does the source give for G94C A142C here?
Answer: The value was -1.37.

Question: Which “polymerase ribozyme fitness (log ratio)” value does the source give for C93U A98G here?
Answer: The value was -1.59.

Question: For C93U G117C C125A, which “polymerase ribozyme fitness (log ratio)” value is on record?
Answer: Its value is -0.271.

Question: Which “polymerase ribozyme fitness (log ratio)” value does the source give for A91C U139G here?
Answer: The value was ≤ -4.2.

Question: Which “polymerase ribozyme fitness (log ratio)” value does the source give for A91G U104G A115C here?
Answer: The value was -4.06.

Question: For A91G G100U A113U A120G C125A U139G, which “polymerase ribozyme fitness (log ratio)” value is on record?
Answer: The value was ≤ -4.2.

Question: Which “polymerase ribozyme fitness (log ratio)” value does the source give for C93A A121C U148C here?
Answer: Its value is -2.37.

Question: For G94C A113G, which “polymerase ribozyme fitness (log ratio)” value is on record?
Answer: The value was -2.8.

Question: With C93G A97U U145G as the variant, how does the “polymerase ribozyme fitness (log ratio)” value read?
Answer: Its value is ≤ -4.2.

Question: With G94A C116U A122U G136A as the variant, how does the “polymerase ribozyme fitness (log ratio)” value read?
Answer: Its value is -0.164.

Question: With C93A C116G A142G as the variant, how does the “polymerase ribozyme fitness (log ratio)” value read?
Answer: Its value is -3.07.

Question: Which “polymerase ribozyme fitness (log ratio)” value does the source give for G92U C93A G133U G140A here?
Answer: The value was ≤ -4.2.

Question: With C93U G141C as the variant, how does the “polymerase ribozyme fitness (log ratio)” value read?
Answer: Its value is -1.55.

Question: Which “polymerase ribozyme fitness (log ratio)” value does the source give for C93U G141U here?
Answer: Its value is -0.142.

Question: For C93A A120U, which “polymerase ribozyme fitness (log ratio)” value is on record?
Answer: The value was -3.4.

Question: Which “polymerase ribozyme fitness (log ratio)” value does the source give for A91U G92U C132A here?
Answer: The value was ≤ -4.2.

Question: Which “polymerase ribozyme fitness (log ratio)” value does the source give for C93U C95U C131U here?
Answer: The value was -0.998.

Question: With G92C U135G A142U as the variant, how does the “polymerase ribozyme fitness (log ratio)” value read?
Answer: Its value is -4.1.

Question: For C93G U102G, which “polymerase ribozyme fitness (log ratio)” value is on record?
Answer: Its value is ≤ -4.2.

Question: For C93U U144G, which “polymerase ribozyme fitness (log ratio)” value is on record?
Answer: Its value is -0.253.

Question: For C93U U144C, which “polymerase ribozyme fitness (log ratio)” value is on record?
Answer: The value was -1.07.

Question: Which “polymerase ribozyme fitness (log ratio)” value does the source give for G92C G141A here?
Answer: Its value is -0.778.

Question: For C93A A106C A120U, which “polymerase ribozyme fitness (log ratio)” value is on record?
Answer: The value was -2.8.

Question: Which “polymerase ribozyme fitness (log ratio)” value does the source give for C93A G100C C118G A138G here?
Answer: Its value is ≤ -4.2.

Question: Which “polymerase ribozyme fitness (log ratio)” value does the source give for C93A A98U C125G C131U here?
Answer: The value was -2.4.

Question: With C93A U102C C105A C125G G143U U144A as the variant, how does the “polymerase ribozyme fitness (log ratio)” value read?
Answer: The value was ≤ -4.2.

Question: For G94A C108A A137C, which “polymerase ribozyme fitness (log ratio)” value is on record?
Answer: The value was ≤ -4.2.

Question: With C93A A106G as the variant, how does the “polymerase ribozyme fitness (log ratio)” value read?
Answer: Its value is -1.9.

Question: For C93U C116U C123A, which “polymerase ribozyme fitness (log ratio)” value is on record?
Answer: Its value is -1.16.

Question: Which “polymerase ribozyme fitness (log ratio)” value does the source give for G92U C123A here?
Answer: The value was -0.758.

Question: Which “polymerase ribozyme fitness (log ratio)” value does the source give for G92C A98G A115U here?
Answer: Its value is -2.44.

Question: For C93A A97U G128A, which “polymerase ribozyme fitness (log ratio)” value is on record?
Answer: Its value is ≤ -4.2.

Question: With G92U C95A A115G A147C as the variant, how does the “polymerase ribozyme fitness (log ratio)” value read?
Answer: The value was ≤ -4.2.

Question: For A91U C114U U148G, which “polymerase ribozyme fitness (log ratio)” value is on record?
Answer: Its value is ≤ -4.2.

Question: With C93U C116U A122U as the variant, how does the “polymerase ribozyme fitness (log ratio)” value read?
Answer: Its value is -1.45.

Question: With A91U C99G as the variant, how does the “polymerase ribozyme fitness (log ratio)” value read?
Answer: Its value is ≤ -4.2.

Question: For C93U A113U A119C G140U, which “polymerase ribozyme fitness (log ratio)” value is on record?
Answer: Its value is -3.82.

Question: Which “polymerase ribozyme fitness (log ratio)” value does the source give for A91G C116G here?
Answer: Its value is -1.65.

Question: Which “polymerase ribozyme fitness (log ratio)” value does the source give for C93A C118U C125A A142G here?
Answer: Its value is ≤ -4.2.

Question: With G92A A115C as the variant, how does the “polymerase ribozyme fitness (log ratio)” value read?
Answer: The value was -3.48.

Question: With C93A A142C as the variant, how does the “polymerase ribozyme fitness (log ratio)” value read?
Answer: Its value is -1.78.

Question: Which “polymerase ribozyme fitness (log ratio)” value does the source give for C93A A142U here?
Answer: Its value is -3.16.

Question: With C93A A142G as the variant, how does the “polymerase ribozyme fitness (log ratio)” value read?
Answer: Its value is -2.77.

Question: For C93G C103G, which “polymerase ribozyme fitness (log ratio)” value is on record?
Answer: The value was ≤ -4.2.

Question: With C93G G141C as the variant, how does the “polymerase ribozyme fitness (log ratio)” value read?
Answer: Its value is -3.36.

Question: With C93G C105A G136U as the variant, how does the “polymerase ribozyme fitness (log ratio)” value read?
Answer: The value was ≤ -4.2.

Question: With G92C C105U as the variant, how does the “polymerase ribozyme fitness (log ratio)” value read?
Answer: Its value is -0.217.

Question: For G92C C105G, which “polymerase ribozyme fitness (log ratio)” value is on record?
Answer: Its value is -2.39.

Question: For C93U C103U A107C C125A, which “polymerase ribozyme fitness (log ratio)” value is on record?
Answer: The value was ≤ -4.2.

Question: For G92U G124U G141C, which “polymerase ribozyme fitness (log ratio)” value is on record?
Answer: The value was -0.283.

Question: For G94A A137C, which “polymerase ribozyme fitness (log ratio)” value is on record?
Answer: Its value is -3.2.

Question: With A91G G92U as the variant, how does the “polymerase ribozyme fitness (log ratio)” value read?
Answer: Its value is -2.31.

Question: With G92A A106C U111G G136A as the variant, how does the “polymerase ribozyme fitness (log ratio)” value read?
Answer: The value was ≤ -4.2.

Question: Which “polymerase ribozyme fitness (log ratio)” value does the source give for C93G U101C here?
Answer: Its value is -3.2.

Question: For C93U C105U, which “polymerase ribozyme fitness (log ratio)” value is on record?
Answer: Its value is -2.55.

Question: With G92A G124C as the variant, how does the “polymerase ribozyme fitness (log ratio)” value read?
Answer: Its value is -3.03.

Question: For A91U G141A, which “polymerase ribozyme fitness (log ratio)” value is on record?
Answer: Its value is -4.05.

Question: With A91U C118A A142C U144G as the variant, how does the “polymerase ribozyme fitness (log ratio)” value read?
Answer: Its value is ≤ -4.2.

Question: With A91G G143C as the variant, how does the “polymerase ribozyme fitness (log ratio)” value read?
Answer: The value was -3.43.

Question: For G92C U111C, which “polymerase ribozyme fitness (log ratio)” value is on record?
Answer: Its value is -3.45.

Question: With A91G C108U as the variant, how does the “polymerase ribozyme fitness (log ratio)” value read?
Answer: The value was -3.97.

Question: Which “polymerase ribozyme fitness (log ratio)” value does the source give for G94A C105A here?
Answer: The value was -1.65.

Question: Which “polymerase ribozyme fitness (log ratio)” value does the source give for G92U C93U here?
Answer: The value was -2.13.

Question: With G94C C105A as the variant, how does the “polymerase ribozyme fitness (log ratio)” value read?
Answer: The value was -1.22.

Question: For G92U A115C A119U G140C, which “polymerase ribozyme fitness (log ratio)” value is on record?
Answer: The value was ≤ -4.2.

Question: Which “polymerase ribozyme fitness (log ratio)” value does the source give for G92U G112C here?
Answer: The value was -2.95.

From the RNAGym collection of RNA variant scans (doi:10.1073/pnas.2313332121)
